Measurements published in PMC9898259, “Cryo-EM structure supports a role of AQP7 as a junction protein” (Nature Communications, 2023).

Biological target: the molecule itself
Test: cryo-EM structure; single-particle cryo-EM; 1 mg/mL AQP7 in GDN on Quantifoil Cu R1.2/1.3 holey carbon grids, 4 °C; octamer = dimer of tetramers; D4 (2.55 Å) and C1 (3.0 Å) reconstructions

B1: Human aquaglyceroporin 7 (AQP7), full-length, C-terminal poly-histidine tag (natural protein, UniProt O14520 1-342, looked up)
chain: MVQASGHRRSTRGSKMVSWSVIAKIQEILQRKMVREFLAEFMSTYVMMVFGLGSVAHMVLNKKYGSYLGVNLGFGFGVTMGVHVAGRISGAHMNAAVTFANCALGRVPWRKFPVYVLGQFLGSFLAAATIYSLFYTAILHFSGGQLMVTGPVATAGIFATYLPDHMTLWRGFLNEAWLTGMLQLCLFAITDQENNPALPGTEALVIGILVVIIGVSLGMNTGYAINPSRDLPPRIFTFIAGWGKQVFSNGENWWWVPVVAPLLGAYLGGIIYLVFIGSTIPREPLKLEDSVAYEDHGITVLPKMGSHEPTISPLTPVSVSPANRSSVHPAPPLHESMALEHF
notes: Aquaporin-7 (aquaglyceroporin 7), human, full-length gene; residues 25-277 modelled in the 2.55 Å map; Tetramers that pair into an octamer (dimer of tetramers) in the cryo-EM structure; only ~47% of all particles were in the octamer class; also called human AQP7; source: P. pastoris GS115 aqy1Δ::HIS4 agp1Δ::NatMX, purified (Ni-NTA, size-exclusion chromatography) in GDN
- stoichiometry N: 8
